Assay results reported in the nanobody polyreactivity screen of Harvey et al. (2022).

Assay: yeast display, Sf9 membrane polyspecificity reagent, FACS + sequencing; frameworks hold sequencing errors
Method in brief: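 Genes from sorted yeast were amplified by colony PCR, read by MiSeq 2 × 250 sequencing and filtered on CDR length. These cells carried a synthetic nanobody library in Saccharomyces cerevisiae BJ5465 and were sorted by FACS into low and high (top ~1%) gates on anti-HA and streptavidin fluorescence. Polyreactivity is labelled according to the gate of origin.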

| Sequence | polyreactivity (PSR sort gate) |
| --- | --- |
| QVQLVESGGGLVQAGGSLRLSCAASGRTFPYNARGLYRQAPGKERELVASITRRGGSTYYADSVKGRFTISLDNAKNSVYLQMNSVKPEDTAVYYCNAAYPYVRRYKYGYWGQGTLVTVSS | high polyreactivity |
| QVQLVESGGGLVQAGGSLRLSCAASGRTFPYYAKGWYRQAPGKERELVAAISKRGGNTYYADSVKGRFTISRDNAKNTVYLQLNSLIPEVTAVYYCNALSSTEYDYWGQGTQVTVSS | high polyreactivity |
| QVQLVESGGGLVQAGGSLRLSCAASGRTFPYYAMGWYRQAPGKERELVAAISSSGGRTYYADSVKGRFTISRDNAKNTVYLQMISLKPEDSAVYDCNVDAWYPYQGFLVGYYYWGQGTQVTVSS | low polyreactivity |
| QVQLVESGGGLVQAGGSLRLSCAASGRTFPYYAMGWYRQAPGKERELVATITYSGGSTYYADSVKGRFTISRDNAKNTVYLQMNSLKPEDTAVYYCAADTGEYSAQYDYWGQGTQVTVSS | high polyreactivity |
| QVQLVESGGGLVQAGGSLRLSCAASGRTFPYYDMGWYRQAPGKERELVAAITSGGTTNYADSVKGRFTISRDNAKNTVYLQMNSLKPEDTAVYYCAAGSPWYYFSSYGYWGQGTQVTVSS | low polyreactivity |
| QVQLVESGGGLVQAGGSLRLSCAASGRTFPYYTMGWYRQAPGKERELVAAINSSGGRTYYADSVKGRFTISRDNAKNTVYLQMNSLKPEDTAAYYCAKRGYYKYDWGQGTQVTVSS | high polyreactivity |
| QVQLVESGGGLVQAGGSLRLSCAASGRTFQDYALGWSRQAPGKEREFVADISDGGSTNYADSVKGRFTISRDNAKNTVYLQMNSLKPEVTAVYYCAADQYHGVGINFRSDYDYWGHGTQVTVSS | low polyreactivity |
| QVQLVESGGGLVQAGGSLRLSCAASGRTFQFYAMGWYRQAPGKERELVAAIDLRGGSTYYADSVKGRFTISRDNAKNTVYLQMNSLKPEDTAVYYCNATRSKFGYFYRYDYWGQGTQVTVSS | low polyreactivity |
| QVQLVESGGGLVQAGGSLRLSCAASGRTFQHYVMGWYRQAPGKERELVDSITNDDSTNYADSVKGRFTISRDNAKITVYLQMNRLKPEDTAVYYCNFDDWGTPVEPGDYDYWGQGTQVTVSS | low polyreactivity |
| QVQLVESGGGLVQAGGSLRLSCAASGRTFQNNAMGWYRQAPGKERELVAAISRSGASTYYADSVKGRFTISRDNAKNTVYLQMNSLKPEATAVYYCAAVTKLGYPPVNHLEDDYWGQGTQVTVSS | low polyreactivity |
| QVQLVESGGGLVQAGGSLRLSCAASGRTFQNNAMGWYRQAPGKERELVAAISWRGTSTYYADSVKGRFTISRDNANNTVYLQMNSLKPEDTAVYYCAAYPKYGFEFKYGYWGQGTQVTVSS | high polyreactivity |
| QVQLVESGGGLVQAGGSLRLSCAASGRTFQQNAMGWYRQAPGKERELVAAINSRGGRTYYADSVKGRFTISRDNAKNTVYLQMNSLKPEDTAVYYCNAVVYTRPYTRPRYRYDYWGQGTQVTVSS | high polyreactivity |
| QVQLVESGGGLVQAGGSLRLSCAASGRTFQRNAMGWYRQAPGKERELVAAITTGSRTYYADSVKGRFTISRDNAKNTVYLQMNSLKPEDTAFYYCAAVATRRDYGYWGQGTQVTVLS | high polyreactivity |
| QVQLVESGGGLVQAGGSLRLSCAASGRTFQRYAMGWYRQAPGKERELVAAISFSGGSTYYADSVKGRFTISRDNAKNTVYLQMNSLKPEDTAVYYCAAYHARSGYDSWGQGTQVTVSS | high polyreactivity |
| QVQLVESGGGLVQAGGSLRLSCAASGRTFQTNVMGWYRQAPGKERELVAAISKTGGRTYYADSVKGRFTISRDNAKNTVYLQMNSLKPEDTAVYYCAADSSGYEDYDYWGQGTQVTVSS | high polyreactivity |
| QVQLVESGGGLVQAGGSLRLSCAASGRTFQWYAMGWYRQAPGKERELVAAISYSDASTYYADSVKGRFTISRDNAKNTVYLQMNSLKPEDTAVYYCAAVYYVVYGPWGGSYYWGQGTQVTVSS | low polyreactivity |
| QVQLVESGGGLVQAGGSLRLSCAASGRTFQWYVMGWYRQAPGKERELVAAITKSGGSTFYADSVKGRFTISRDNAKNTVYLQMNSLKPEDTAVYYCAASGRYAIVLGDQYYGYYYWGQGTQVTVSS | high polyreactivity |
| QVQLVESGGGLVQAGGSLRLSCAASGRTFQYNTMGWYRQAPGKERELVAAISWSGGRTYYADSVKGRFTISRDNAKNTVYLQMNSLKPEDTAVYYCAADGTPEIRDNYWGQGTQVTVSS | high polyreactivity |
| QVQLVESGGGLVQAGGSLRLSCAASGRTFQYYAMGWYRQAPGKERELVATISYSGGSTSYADSVKGRFTISRDNAKNTVYLQMNSLKPEDTAVYYCAADYYYGDALSPYYPHWDFYYWGQGTQVTVSS | low polyreactivity |
| QVQLVESGGGLVQAGGSLRLSCAASGRTFRANAMGWYRQAPGKERELVAAISKRGGNTYYADSVKGRFTISRDNAKYTVYLQMNSLKPEDTAVYYCAAHFIGRDYDYWGQGTQVTVSS | high polyreactivity |
| QVQLVESGGGLVQAGGSLRLSCAASGRTFRANTMGWYRQAPGKERELVAAISHSGGSTYYADSVKGRFTISRDNAKYTVYLQMISLKPEDTAVYYCATDGGSYSWASPRVDYWGQGTQVTVSS | low polyreactivity |

| Sequence | polyreactivity (PSR sort gate) |
| --- | --- |
| QVQLVESGGGLVQAGGSLRLSCAASGRTFRAYAMGWNRQPPGKVRELVAVISLSGGSTYYADSVKGRFTISRDNAKNTVYLQMNSLKPEDTAVYYCAAVDWSYTGWRYDYWGQGTQVTVSS | low polyreactivity |
| QVQLVESGGGLVQAGGSLRLSCAASGRTFRAYGMGWYRQAPGKERELVAVISWRDGSTFYADSVKGRFTISRDNAKNTVYLQMNSLNPEDTAVYYCNTAYYPGNYSQYDYWGQGTQVTVSS | low polyreactivity |
| QVQLVESGGGLVQAGGSLRLSCAASGRTFRDNAMGWYRQAPGKDRELVAAIDIDSSTYYADSVEGRFTISRDNAKNTVYLQMNSLKPEDTAVYYCAAESYHDGKGFPDYEYWGQGTQVTVSS | low polyreactivity |
| QVQLVESGGGLVQAGGSLRLSCAASGRTFRDYAMGWYRQEPGKESELVAAITWIGGTTYYADSVKGRFTISRDNAKNTVYLQMNSLKPEDTAVYYCAKKRYHWYGRYYYWGQGTQVTVSS | high polyreactivity |
| QVQLVESGGGLVQAGGSLRLSCAASGRTFRFDAMGWYRQAPGKEREFVAAISRSVGSTYYADSVKGRFTISRDNAKTTVYLQMNSLKPEDTAVYYCNGDYRSRYVEYDYWGQGTQVTVSS | high polyreactivity |
| QVQLVESGGGLVQAGGSLRLSCAASGRTFRFNAMGWYRPAPGKERELVAAIRWSGSSTYYADSVKGRFTISRDNAKNTVYLQMNSLKPEDTAVYYSAKRVKTTWFGYWGQGTQVTVSS | high polyreactivity |
| QVQLVESGGGLVQAGGSLRLSCAASGRTFRFNAMGWYRQAPGKERELVAAISSGGNTYYADSVKGRFTISRDNAKNTVYLQMNSLKPEDTAVYYCNTVYLYGTHDYWGQGTQVTVSS | low polyreactivity |
| QVQLVESGGGLVQAGGSLRLSCAASGRTFRFYAMGWSRQAPGKEREMVAAISYSGGSTYYADSVKGRFTISRDNAKNTVYLQMNSLKPEDTAVYYCAAPYYRSTTSYDYWGQGTQVTVSS | high polyreactivity |
| QVQLVESGGGLVQAGGSLRLSCAASGRTFRFYAMGWYRQAPGKERELVAAISWNGGRTYYADSVKGRFTISRDNAKNTVYLQMNSLKPEDTAFYYCAKDRGGPFYWRYPLGYWGQGTQVTVSS | high polyreactivity |
| QVQLVESGGGLVQAGGSLRLSCAASGRTFRFYAMGWYRQAPGKERELVAAITYRGGTYYADSVKGRFTISRDNAKNTVYLQMNSLKPEDTAVYYCAVKPSGWSGMDYWGQGTQVTVSS | high polyreactivity |
| QVQLVESGGGLVQAGGSLRLSCAASGRTFRGNAMGWDRQAPVKERELVAAITWGVGSTYYADSVKGRFTISRDNAKNTVYLQMNSLKPEDTAVYYCATRSYRGRDGFGYWGQGTQVTVSS | high polyreactivity |
| QVQLVESGGGLVQAGGSLRLSCAASGRTFRGNAMGWNRQTHGKERELVAAISWSGGRTYYADSVKGRFTISRDNAKNSVYLQMNSLKPEDTAVYDCAAVVPKYGQAGYDYWGQGTQVSVSS | high polyreactivity |
| QVQLVESGGGLVQAGGSLRLSCAASGRTFRGNAMGWYRPAPGKERELVAAITTAGGTYYADSVKGRFTISRDNAKNTVYLQMNSLKPEDTAVYYCAKLSHRGQSTGVDYWGQGTQVTVSS | low polyreactivity |
| QVQLVESGGGLVQAGGSLRLSCAASGRTFRGNAMGWYRQAPGKERELVAAISRRGVSTYYADSVKGRFTISRDNAKNTVYLQMNSLKPEDTAVYYCAVVVYQGFRSKYYYWGQGTQVTVSS | high polyreactivity |
| QVQLVESGGGLVQAGGSLRLSCAASGRTFRGNTMGWYRQAPGKERELVAAISRGGSTNYADSVKGRFTISRDNTKNTVYLQMNSLTPEDTAVYYCAKDRYVRWGRTFEFDYWGQGTQVTVSS | low polyreactivity |
| QVQLVESGGGLVQAGGSLRLSCAASGRTFRGYAMGWYRQAPGKERELVAGITQRGGTTYYADSVKGRFTISRDNAKNTVYLQMNSLKPEDSAVYYCAAAFGRVTKYGYRNQYGYWGHGTQVTVSS | high polyreactivity |
| QVQLVESGGGLVQAGGSLRLSCAASGRTFRINAMGWYRQAPGKERELVAAINDGGDTYADSVKGRFTISRDNAKNTVYLQMNSLKPEDTAVYYCAVRILTNRWYYGYWGQGTQVTVSS | low polyreactivity |
| QVQLVESGGGLVQAGGSLRLSCAASGRTFRINAMGWYRQAPGKERELVAAITRGDTNYADSVKGRFTISRDNAKNTVYLQMNSLKPEDTAVYYCNAELSFRYPVFRELDYWGQGTQVTVSS | low polyreactivity |
| QVQLVESGGGLVQAGGSLRLSCAASGRTFRINAMGWYRQAPGKERELVAAITSGGRTNYADSVKGRFTISRDNAKNTVYLQMNSLKPEDTAVYYCAADTTHWYYLGYGYWGQGTQVTVSS | low polyreactivity |
| QVQLVESGGGLVQAGGSLRLSCAASGRTFRINAMGWYRQAPGKEREMVAAIRSRAGSTYYADSVKGRFTISRDNAKNTVYLQMYSLKPEDTAVYYCAAKFPFDVDYWGQGTQVTVSS | high polyreactivity |
